The record followed here is patent US20240042018A1 (University of Washington, published 2024).

Where a chain is given by its changes, count along the chain named.

Assay [1] concerns the target T1, H1MI15-I53_dn5B trimer (A/Michigan/45/2015 HA 1-676 Y98F no lkr dn5B.SA.WELQ-H) (influenza A virus H1/A/Michigan/45/2015 …). In words: in vitro nanoparticle assembly; SEC, DLS, nsTEM.
In assay [2] the target is T1, H1MI15-I53_dn5B trimer …. Nature of the assay: in vitro nanoparticle assembly.
Assay [3] concerns the target T1, H1MI15-I53_dn5B trimer …. In words: in vitro nanoparticle assembly, SEC.
The target of assay [4] is T1, H1MI15-I53_dn5B trimer …. Nature of the assay: in vitro nanoparticle assembly, SEC and SDS-PAGE.

B1: I53_dn5Acp7 PAS pentamer (designed binder)
chain: MGSHHHHHHGSDEQAEERAGTKAGNHGEDWGAAAVEMATKFNGSGGSGKYDGSKLRIGILHARGNAEIILELVLGALKRLQEFGVKRENIIIETVPGSFELPYGSKLFVEKQKRLGKPLDAIIPIGVLIRGSTAHFDYIADSTTHQLMKLNFELGIPVIFGVLTTESGGSASPAAPAPASPAAPAPSAPAAASPAAPAPASPAAPAPSAPAAASPAAPAPASPAAPAPSAPAA
In the case of B1, the binding result in assay [1] is recorded as “binds”.

B2: I53_dn5A_2gly pentamer (designed binder)
chain: KYDGSKLRIGILHARGNAEIILELVLGALKRLQEFGVKRENIIIETVPGSFELPYGSKLFVEKQKRLGKPLDAIIPIGVLIRGNDTHFDYIADSTTHQLMKLNFELGIPVIFGVLTTNSTEQAEERAGTKAGNHGEDWGAAAVEMATKFNLEEQKLISEEDLHHHHHH
In the case of B2, the binding result in assay [2] was “binds”.

B3: I53_dn5A_1C5kPEG pentamer (designed binder)
chain: MGKYDGSKLRIGILHARGNAEIILALVLGALKRLQEFGVKRENIIIETVPGSFELPYGSKLFVEKQKRLGKPLDAIIPIGVLIRGSTPHFDYIADSTTHQLMKLNFELGIPVIFGVITADTCEQAEARAGLIEGKMHNHGEDWGAAAVEMATKFNGGWELQLEGSHHHHHH
In the case of B3, the binding result in assay [3] is reported as “binds”.

B4: I53_dn5A_D120C pentamer coupled to 2 kDa PEG (designed binder)
chain: B3 chain
For the molecule B4, the binding result in assay [4] is “binds”.

B5: I53_dn5A_D120C pentamer coupled to 1 kDa PEG (designed binder)
chain: B3 chain
Regarding B5, in assay [4], the binding result is “binds”.

B6: I53_dn5A_S84C_D120C pentamer coupled to 1 kDa PEG (designed binder)
chain: B3 chain with S86C
As to B6, the binding result in assay [1] is on record as “binds”.

B7: I53_dn5A_2C2kPEG pentamer (designed binder)
chain: B3 chain with S86C
For the molecule B7, the binding result in assay [1] is listed as “binds”.
